Experimental data from the supplement of paper PMC10567573.

B1: TMEM192 (parent)
chain: LWILHLLLECYIQYHHSKIRNRGY
B2: TNXB (parent)
chain: FSEIRETSAKVNWMPPPSRADSFK

Variants of: B1
Assay: protein stability index of a GFP-peptide fusion (GPS, HEK-293T) (PSI 1-6); higher = more stable
Settings: c terminus: a fixed tail appended
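Also: lentivirally expressed fusions sorted by FACS into six bins by GFP to DsRed ratio, PSI derived from sequencing read proportions per bin multiplied by bin number.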

Protein stability index, by site and new letter:
Y24: K 1.31; N 2.44; M 2.28; C 1.79; T 1.12; V 2.69; S 2.3; P 2.52; Q 1.57; I 2.54; H 1.62; R 2.31; G 3.91; A 2.18
I19: S 1.78; Q 1.55; G 2.44; H 1.43; V 2.01; L 2.14; F 3.16; N 1.88; A 2.33; D 1.73; R 1.96; W 1.88; T 1.94; P 2.04; K 1.31
G23: N 1.79; R 1.78; F 1.38; Q 2.51; Y 1.89; V 3.73; A 2.48; K 2.54; I 2.99; T 2.78; P 3.17; W 1.77; M 1.87; C 2.04
K18: F 2.88; H 4.09; E 2.77; T 2.76; G 2.69; D 3.53; S 3.8; M 3.16; R 4.17; N 3.08; P 2.32; Q 2.67
R20: K 1.97; P 3.47; D 2.8; M 3.17; N 2.26; A 3.18; G 2.05; S 2.63; Q 1.87; L 1.89; T 2.38; H 2.63; Y 2.69; I 3.52; W 2.45
N21: L 2.11; I 2.45; R 3.57; H 2.53; V 2.93; F 1.97; A 2.86; W 2.74; Y 2.6; G 2.35; K 1.98; S 2.7; P 2.81
R22: K 1.46; Y 1.98; F 2.93; W 3.32; N 2.26; V 1.17; D 3.49; C 4.22; P 1.67; Q 3.54; I 2.69; A 2.18; S 2.66; L 2.44
S17: R 3.51; C 2.7; P 2.26; M 1.11; Q 2.37; H 2.86; T 2.08; W 2.15; V 1.59; Y 4.45; N 2.6; I 2.57; D 2.04; G 2.28

Variants of: B2
Assay: as above
Settings: c terminus: a fixed tail appended

Protein stability index of substitutions, site by site:
E3: L 2.47; N 3.2; M 2.55; T 3.52; Q 3.13; I 2.03; F 2.38; W 2.6; K 3.68; A 2.4; C 1.77; R 3.13; V 2.44; S 3.09; Y 2.21; D 3.37; G 2.34; H 2.62; P 2.52
V11: A 3.77; F 2.97; D 4.12; R 3.02; K 4.2; S 3.87; I 3.77; H 3.5; E 4; Y 2.7; G 3.38; P 4.03; N 3.45; L 3.29; M 3.17; T 3.72; C 3.15; Q 3.65; W 2.73
N12: D 3.83; Q 3.04; Y 2.09; P 3.17; F 2.96; H 2.71; R 2.62; G 3.35; E 3.46; T 2.9; I 3.24; S 3.38; M 2.04; W 2.2; V 1.95; A 2.14; K 2.88
F1: T 4.07; S 4.48; E 4.45; L 4.02; N 4.63; K 4.4; G 4.22; D 5.04; P 4.76; C 3.69; R 4.99; W 3.6; Y 3.98; I 3.46; H 3.94; V 4.19; A 4.29; M 4.15; Q 4.48
S2: L 2.97; G 2.97; N 4.04; Q 3.97; R 3.2; P 3.65; W 2.37; M 3.17; Y 3; V 1.9; T 2.67; H 2.21; I 2.17; E 3.98; D 4.12; A 2.69; F 2.65; K 3.49
A9: H 3.36; V 2.35; D 3.58; N 2.95; I 2.83; M 3.32; F 2.2; Q 3.72; T 3.46; C 2.38; G 3.04; K 3; L 3.41; Y 2.82; W 2.46; S 3.75; P 3.33; E 4.04; R 3.29
S8: M 3.15; T 3.63; Q 3.76; L 2.79; H 3.4; N 3.73; W 2.1; I 2.73; K 2.95; D 4.48; F 2.51; G 3.15; A 3.5; P 3.3; V 3.1; R 2.74; E 3.5; C 3.95; Y 2.95
K10: W 1.66; G 3.28; A 3.92; E 3.76; T 3.96; P 3.52; F 2.09; N 2.94; S 3.76; R 3.67; Q 4.12; H 3.32; D 4.01; I 3.06; M 3.72; L 3.29; C 3; Y 2.72
R5: N 3.79; G 3.22; E 4.23; P 4.12; D 3.97; A 3.96; T 3.87; F 2.86; S 4.02; C 2.83; V 3.52; M 3.48; W 2.02; Q 4.15; L 3.51; K 3.74; Y 3.04; I 3.4; H 3.79
I4: Y 2.94; V 3.56; Q 3.89; H 4.14; L 3.42; R 3; P 4.16; T 4.29; N 3.51; S 4.01; K 3.72; C 3.49; F 2.9; D 3.99; G 4.34; E 4.3; W 1.9; M 3.92; A 3.76
T7: Q 3.38; M 2.97; F 1.78; G 3.14; Y 2.25; C 3.24; V 2.97; K 3.97; R 3.3; D 3.86; N 3.37; I 2.9; S 3.22; A 3.23; H 3.1; E 3.88; P 3.64; L 2.69
E6: G 3.03; V 2.84; K 3; P 3.21; C 2.65; T 2.95; A 3.31; D 3.28; Q 2.02; W 2; M 2.34; H 3.38; R 2.89; F 2.22; Y 2.87; N 2.69; I 1.82; S 2.64; L 2.28
